Results published in paper PMC10371346, “Modeling of ACE2 and antibodies bound to SARS-CoV-2 provides insights into infectivity and immune evasion” (JCI Insight, 2023).

Molecular target: T1, recombinant His-tagged wild-type SARS-CoV-2 Spike trimer (SARS-CoV-2, Wuhan-Hu-1 (wild-type), UniProt P0DTC2)
T1 construct: also called wild-type Spike trimer; wild-type Spike
Experiment: flow cytometry on cells; Cas1-CAR-NK92MI cells displaying the scFv-CAR incubated with recombinant His-tagged Spike trimer in PBS with 0.5 mM CaCl2 and 0.9 mM MgCl2, 1 hour at 4°C under gentle agitation; washed, stained with PE anti-His and Alexa Fluor 647 anti-human IgG (H+L); parental NK92MI as negative and 293T-hACE2 as positive control
Details: one partner purified

B1: REGN10933 (casirivimab) single chain variable fragment displayed as a chimeric antigen receptor on NK92MI cells (scFv, V domains shown)
VH: QVQLVESGGGLVKPGGSLRLSCAASGFTFSDYYMSWIRQAPGKGLEWVSYITYSGSTIYYADSVKGRFTISRDNAKSSLYLQMNSLRAEDTAVYYCARDRGTTMVPFDYWGQGTLVTVSS
VL: DIQMTQSPSSLSASVGDRVTITCQASQDITNYLNWYQQKPGKAPKLLIYAASNLETGVPSRFSGSGSGTDFTFTISGLQPEDIATYYCQQYDNLPLTFGGGTKVEIK
notes: scFv domain of casirivimab (REGN10933); the variable domains are those of REGN10933 in PDB 6XDG; rest of the chimeric antigen receptor (hinge, transmembrane and signalling parts); also called Cas1-CAR; Cas1
  binding result: binds
